Measured values as given in patent publication US20110305783A1, “Method and pharmaceutical composition for treating psoriasis, squamous cell carcinoma and/or parakeratosis by inhibiting expression of squamous cell carcinoma-related antigen” (Shiseido Company, Ltd., priority 2005, published 2011).
“Also recorded” adds a separate entry of the source. Like-named read-outs stand apart in the source and are kept apart here. Ends that are not written are not given here. * marks the point of attachment. Cbz = O=C(OCc1ccccc1)*; CH2F = FC*

B1: SCCA-1: recombinant squamous cell carcinoma antigen 1, member of the serpin superfamily, intrinsic inhibitor of caspase-14 (protein)
chain: MNSLSEANTKFMFDLFQQFRKSKENNIFYSPISITSALGMVLLGAKDNTAQQIKKVLHFDQVTENTTGKAATYHVDRSGNVHHQFQKLLTEFNKSTDAYELKIANKLFGEKTYLFLQEYLDAIKKFYQTSVESVDFANAPEESRKKINSWVESQTNEKIKNLIPEGNIGSNTTLVLVNAIYFKGQWEKKFNKEDTKEEKFWPNKNTYKSIQMMRQYTSFHFASLEDVQAKVLEIPYKGKDLSMIVLLPNEIDGLQKLEEKLTAEKLMEWTSLQNMRETRVDLHLPRFKVEESYDLKDTLRTMGMVDIFNGDADLSGMTGSRGLVLSGVLHKAFVEVTEEGAEAAAATAVVGFGSSPTSTNEEFHCNHPFLFFIRQNKTNSILFYGRFSSP

Assays:
Type in all cases: biochemical
caspase-14 [1] = target: T1, caspase-14 (Homo sapiens, UniProt P31944); assay: Inhibitor assay on purified caspase-14, WEHD-MCA hydrolysis activity
T1 construct: human caspase-14 is purified in the form of a heterodimer composed of a large subunit (17 KDa) and a small subunit (11 KDa); from tissue; host or cells: human cornified cells (heel stratum corneum)
T1 sequence (P31944 6-146 limits assumed): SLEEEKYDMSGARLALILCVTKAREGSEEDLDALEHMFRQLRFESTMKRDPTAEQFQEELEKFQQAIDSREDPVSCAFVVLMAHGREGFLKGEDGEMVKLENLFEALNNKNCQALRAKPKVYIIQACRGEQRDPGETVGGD
T1 sequence (P31944 153-242 limits assumed): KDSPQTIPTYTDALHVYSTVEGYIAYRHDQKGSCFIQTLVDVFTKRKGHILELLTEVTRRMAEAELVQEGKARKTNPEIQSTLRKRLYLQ
Protocol: Caspase-14 was incubated with peptide inhibitors of caspase (consisting of YVAD, VDVAD, DEVD, VEID, IETD, LEHD and DNLD) and class-specific inhibitors of cysteine proteinase (IAA) and serine proteinase (AEBSF). Residual enzyme activity was measured using WEHD-MCA as substrate in the presence of 1.3 M sodium citrate and 5 mM DTT. […] The values are shown as the average values of duplicate assays.
Briefly, the assay mixture was prepared from 45 μl of 0.1 M HEPES buffer (pH 7.5), 0.06 M NaCl, 0.01% CHAPS, 5 mM DTT, 1.3 M sodium citrate and 10 μM WEHD-MCA (all concentrations indicate the final concentrations). An enzyme sample (5 μl) was added to this mixture followed by incubating for 10 to 30 minutes. The reaction was stopped with 150 μl of 0.1 M monochloroacetic acid, and measurements were performed at an excitation wavelength of 355 nm and emission wavelength of 460 nm using Fluoroskan Ascent FL (Thermo Electron Co., Wolsam, Mass.). In the case of the inhibitor assay, caspase-14 and peptide inhibitor were incubated in the assay buffer for 15 minutes, and the assay was started with the addition of 5 μl of 100 μM WEHD-MCA.
Human cornified cells (approx. 14 g) scraped from the heels of healthy individuals were extracted with 0.1 M Tris-HCl (pH 8.0) containing 0.14 M NaCl using a glass homogenizer. A supernatant was obtained after centrifuging at 15,000 g for 60 minutes. After concentrating with Amicon Ultra (Millipore, Mass.) and desalting with the Fast Desalting Column HR10/10 (Amersham Biosciences), the crude product was applied to a HiPrep 16/10 QXL column. […] In addition, hydrolysis activity with respect to Ac-[…]-Glu-His-Asp-methyl-coumarin amide (WEHD-MCA) (Peptide Institute, Inc., Osaka, Japan) was measured for each fraction. Positive fractions were placed on a Mono Q column equilibrated with the same buffer and eluted a maximum NaCl gradient of 1 M. The caspase-14 fraction was further separated by Mono S cationic exchange chromatography. The column was equilibrated with 20 mM acetate buffer (pH 4.5) and eluted at an NaCl gradient of 0 to 1 M. Positive fractions were concentrated and placed on a chromatofocusing Mono P column equilibrated with 25 mM ethanolamine (pH 8.3). The column was eluted while forming a pH gradient from 8 to 5 using 46 ml of Polybuffer (pH 5.0). The caspase-14 was finally purified using Superdex 75 gel chromatography. The protein concentration was determined with the BioRad Protein Assay Kit (BioRad Lab, Hercules, Calif.).

caspase-14 [2] = target: T1, caspase-14; assay: ICAD decomposition by purified caspase-14, Western blot; conditions: pre-incubation with 10 μM SCCA-1, kosmotropic salt, Western blot (FIG. 10B)
Protocol: (§1) ICAD decomposition was only observed in the presence of kosmotropic salt. […] When SCCA-1 was added to the mixture, ICAD decomposition was virtually not detected, and there were still no effects after incubating for 16 hours (B). (C) The results are shown of investigating hydrolysis activity on synthetic caspase substrates in the presence of kosmotropic salt.
The inventors of the present invention tested the effects of caspase-14 on ICAD during the course of searching for natural substrates of caspase-14. This is because disappearance of the nucleus is an extremely important event for terminal differentiation.
(§2) Although SCCA-1 is a member of the serpin superfamily, it inhibits cysteine proteases such as papain and cathepsin L (Takeda, A., et al., Biol. Chem., 383, 1231-6 (2002)). […] Thus, the inventors of the present invention conducted a test as to whether or not SCCA-1 is able to inhibit caspase members. Kosmotropic conditions were used in the case of caspase-14. […] Recovery of enzyme activity was not observed even if the incubation time increased.

[3] = test system: Recombinant caspases-1 to 10; assay: Recombinant caspases incubated with SCCA-1, hydrolysis of synthetic caspase substrates; conditions: recombinant caspase incubated with SCCA-1 (FIG. 10C)
Protocol: as §1
Benzyloxycarbonyl (Z)-YVAD-FMK, Z-VDVSD-FMK, Z-DEVD-FMK, Z-VEID-FMK, Z-IETD-FMK, Z-LEHD-FMK and Z-VAD-FMK were purchased from BioVision (Mountain View, Calif.). Recombinant caspases-1 to 10 were obtained from BIOMOL Research Labs, Inc. (Plymouth Meeting, Pa.).
as §2

caspase-3 = target: T2, caspase-3 (Homo sapiens, UniProt P42574); assay: Caspase-3 activity with SCCA-1, synthetic substrate DEVD-MCA or natural substrate ICAD
T2 construct: purchased BIOMOL Research Labs, Inc. (Plymouth Meeting, Pa.)
T2 sequence (P42574 29-277): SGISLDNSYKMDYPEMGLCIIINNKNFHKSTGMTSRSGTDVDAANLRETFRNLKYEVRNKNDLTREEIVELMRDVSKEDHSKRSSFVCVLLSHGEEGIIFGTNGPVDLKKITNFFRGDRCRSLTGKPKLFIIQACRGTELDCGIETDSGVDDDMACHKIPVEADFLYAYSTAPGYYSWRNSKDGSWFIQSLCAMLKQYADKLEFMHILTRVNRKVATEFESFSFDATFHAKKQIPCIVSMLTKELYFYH
Source text: The enzymatic characteristics of purified caspase-14 were extremely unique. […] The inventors of the present invention determined for the first time that SCCA-1 is an intrinsic inhibitor against caspase-14. The most unique characteristic of SCCA-1 is its remarkable specificity for caspase-14. Other members of caspase-1 to -10 are not affected by SCCA-1. […] Crm A belongs to the serpin superfamily and is known to be able to inhibit a large number of caspases including caspase-1 and caspase-8 (Gagliardini, V., et al., Science 263, 826-(1994)). XIAP is known to inhibit caspase-3, -7 and -9 (Srinivasula, S. M., et al., Nature 410, 112-6 (2001)). Since the anti-apoptotic protein p35 inhibits caspase-1, -3, -6, -7, -8 and -10, it is considered to have a broader spectrum.

[4] = inhibitors at 5, 2.5 and 1.25 μM, WEHD-MCA substrate, 1.3 M sodium citrate, 5 mM DTT

Molecule	Inhibitory effect on purified caspase-14 activity (caspase-14 [1]; [4])	further results
Benzyloxycarbonyl (Z)-YVAD-FMK	extremely potent inhibitory effects; also recorded: most potent inhibitory action	–
DEVD-FMK: caspase-3 inhibitor	sensitivity	–
IETD-FMK: caspase-8 inhibitor (Cbz-IETD-CH2F)	sensitivity	–
VEID-FMK: peptide inhibitor of caspase (Cbz-VEID-CH2F)	hardly any effect	–
VAD-FMK: pan-caspase inhibitor (Cbz-Val-Ala-Asp-CH2F)	sensitivity; also recorded: one of the most potent caspase-14 inhibitors	–
O=C(O)CI [IAA, iodoacetic acid]	–	Inhibitory effect on purified caspase-14 activity (caspase-14 [1]): did not exhibit significant inhibitory effects
VDVAD-FMK: caspase-2 inhibitor (VDVAD-CH2F)	sensitivity	–
LEHD-FMK: caspase-9 inhibitor (Cbz-LEHD-CH2F)	sensitivity	–
NCCc1ccc(S(=O)(=O)F)cc1 [ABBSF, 4-(2-aminoethyl)benzenesulfonyl fluoride]	did not exhibit significant inhibitory effects	–
B1	–	Inhibition of ICAD cleavage by caspase-14 (caspase-14 [2]): inhibited decomposition of ICAD; also recorded: completely inhibited; Effect on enzyme activity of caspase members (1 to 10) [3]: None of the caspase members (1 to 10) were affected; Inhibition of caspase-3 activity (caspase-3): did not inhibit
